Assay results from PMC2768332.

T1: KSRP (UniProt Q92945 1-711)
T1 sequence: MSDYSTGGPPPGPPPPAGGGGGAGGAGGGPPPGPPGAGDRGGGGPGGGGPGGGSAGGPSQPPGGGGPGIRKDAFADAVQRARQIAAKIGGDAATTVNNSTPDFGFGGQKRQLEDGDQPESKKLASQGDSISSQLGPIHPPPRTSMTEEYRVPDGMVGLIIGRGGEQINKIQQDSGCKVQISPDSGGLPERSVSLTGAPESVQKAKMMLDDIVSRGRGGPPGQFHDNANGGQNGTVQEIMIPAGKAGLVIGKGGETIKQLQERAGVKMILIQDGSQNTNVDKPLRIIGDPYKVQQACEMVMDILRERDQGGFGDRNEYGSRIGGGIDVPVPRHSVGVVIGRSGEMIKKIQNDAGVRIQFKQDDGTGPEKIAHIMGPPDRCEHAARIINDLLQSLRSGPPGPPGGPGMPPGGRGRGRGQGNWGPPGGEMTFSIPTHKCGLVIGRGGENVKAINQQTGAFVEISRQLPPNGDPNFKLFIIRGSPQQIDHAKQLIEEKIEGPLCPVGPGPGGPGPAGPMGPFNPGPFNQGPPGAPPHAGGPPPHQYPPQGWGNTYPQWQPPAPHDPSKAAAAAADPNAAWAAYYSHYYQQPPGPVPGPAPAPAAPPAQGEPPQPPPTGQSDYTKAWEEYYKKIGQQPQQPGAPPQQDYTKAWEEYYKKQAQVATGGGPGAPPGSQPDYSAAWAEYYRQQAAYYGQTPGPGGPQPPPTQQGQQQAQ


Target: T1, KSRP
Experiment: UV-crosslinking or EMSA

| Binder | binding result |
| --- | --- |
| CUCUUCAAUCUCAUGG (ssRNA) [TL-miR-21 M2] | no binding |
| CUGUUGAAUCUCAUGG (ssRNA) [TL-miR-21 WT] | binds |
